Settings in all cases: remark: other sources report otherwise
Experiment [1] deals with SARS-CoV-2 full length spike protein, V367F mutant (SARS-CoV-2), P0DTC2.
Experiment [2] has as its target SARS-CoV-2 full length spike protein, V483A mutant (SARS-CoV-2), P0DTC2.
In experiment [3] the target is SARS-CoV-2 full length spike protein, D614G mutant (SARS-CoV-2), P0DTC2.

Several values for one entry are separate records, joined by “and”; a condition that tells them apart may be missing. Identical values can stand only once.

B1: antibody 279 (antibody, V domains shown)
VH: EVQLLESGGGLVQPGGSLRLSCAASGFTFSSYAMSWVRQAPGKGLEWVSTISGSGGNTYYADSVKGRFTISRDNSKNTLYLQMNSLRAEDTAVYYCAKDLFQGLYYGSGEFDYWGQGTLVTVSS
VL: QSALTQPASVSGSPGQSITISCTGTSSDVGAYNYVSWYQQHPGKAPKLMIYGVSNRPSGVSNRFSGSKSGNTASLTISGLQAEDEADYYCSSYTSSSTRVFGTGTKVTVL
For the molecule B1, the median fluorescence intensity, fold over isotype control (fold over isotype) in experiment [1] is 13.4; in experiment [2] it was 11.8 and 8.2.

B2: antibody 521 (antibody, V domains shown)
VH: QVQLVESGGGVVQPGRSLRLSCAASGFTFSSYGMHWVRQAPGKGLEWVAVIWYDGSNKYYADSVKGRFTISRDNSKNTLYLQMNSLRAEDTAVYYCAREGNDYGDYGEWELLGYFDYWGQGTLVTVSS
VL: SYELTQPPSVSVSPGQTARITCSGDALPKKYAYWYQQKSGQAPVLVIYEDSKRPSGIPERFSGSSSGTMATLTISGAQVEDEADYYCYSTDSSGNHRRVFGGGTKLTVL
B2: the median fold over isotype (fold over isotype) in experiment [3] was 2.68; in experiment [1], 1.68; in experiment [2], 2.72 and 5.78.

Values taken from patent US20210292393A1.
